Test results taken from patent US20250340623A1 (AC IMMUNE, published 2025).
Positions count from the first letter of the chain named.

B1: ACI-3108C10_3112H1 (bispecific antibody, V domains shown)
VH 1: ELQLVESGGGLVRPGGSLKLSCATSGFTFRNYAMSWVRQTPAKRLEWVATISDGGTYTFYSDNVKGRFTISRDNVKNTLYLQMSHLKSEDTAMYYCSRAGSGHWGQGTTLTVSS
VL 1: not shown
VH 2: EVQLQQSGPELVKPGASVKISCKASGYTFSDYFMNWVKQSHGKSLEWIGDINPNNGGSSYIQKFKGKATLTVDKSSTTAYMELRSLTSEDSAVYYCARGSNYAMDSWGQGTSVTVSS
VL 2: DIVMSQSPSSLAVSAGEKVTMSCKSSQSLLNSRTRKNYLAWYQQKPGQSPKLLIYWASTRESGVPDRFTGSGSGTDFTLTISSVQAEDLAVYYCKQSYDLWTFGGGTKLEIK
notes: biparatopic; Arm A ACI-7079-3108C10-Ab2, Arm B ACI-7079-3112H1-Ab1; engineered constant domains not specified
B2: ACI-7079-3112H1-Ab1 (antibody, V domains shown)
VH: B1 VH 2
VL: B1 VL 2
notes: mouse hybridoma mAb; VH/VL only; also called 3112H1F3
B3: ACI-8032-6301G2-Ab2 (antibody, V domains shown)
VH: EVQLQQSGPELVKPGASVKISCKASGYTFTDYFMNWVKQSHGKSLEWIGDINPNIGVTNYNPKFKDRATLTVDKSSSSAYMELRSLTSEDSTVYYCARGGGSNPLYYAMDYWGQGTSVTVSS
VL: B1 VL 2 with Y93F
notes: mouse hybridoma mAb; VH/VL only; also called 6301G2D11
B4: ACI-8033-6402E2-Ab2 (antibody, V domains shown)
VH: EVQLQHSGPDLVKPGASVKISCKASGYTFTDYYMNWVKQSHGKSLEWIGDINPNNGDTTYNQKFKGRATLTVDKSSSTAYMELRSLTSEDSAVYYCARSGSNYYAMDSWGQGTSVTVSS
VL: B1 VL 2 with K18R, L30F, T78S, T80N
notes: mouse hybridoma mAb; VH/VL only; also called 6402E2E4
B5: ACI-8031-6207G10-Ab1 (antibody, V domains shown)
VH: QVQLQQSGAELVKPGASVKISCKASGYAFSSYWMNWVKQRPGKGLEWIGQIYPGDGDTNYNGKFKGKATLTADRSSSTAYMQLSSLTSEDSAVYFCAITHYDYWGQGTTLTVSS
VL: DILLTQSPAILSVSPGDRVSFSCRASQSIGTRIHWYQQRTNGSPRLLIKYASESISGTPSRFSGSGSGTDFTLSINSVESEDIADYYCQQSNSWPLTFGAGTKLELK
notes: mouse hybridoma mAb; VH/VL only; also called 6207G10E6
B6: ACI-8032-6304F3-Ab1 (antibody, V domains shown)
VH: QVQLQQSGAELARPGASVKLSCKASGYTFTSYGVSWVKQRTGQGLEWIGEIYPRSGNTYYNEKFKGKATLTADKSSSTAYMELRSLTSEDSAVYFCASESYYGDYDWYFDVWGTGTTVTVSS
VL: DVLMTQIPLSLPVSPGDQVSISCRSSQSIVHSNGNTYLEWYLQKPGQSPKPLIYKVSNRFSGVPDRFSGSGSGTDFTLKISRVEAEDLGVYYCFQGSHVPPTFGGGTKLEIK
notes: mouse hybridoma mAb; VH/VL only; also called 6304F3D12
B7: ACI-8032-6301C8-Ab2 (antibody, V domains shown)
VH: B6 VH with A16T, S31T, V34I, S75P, D106A
VL: B6 VL with P15L, V19A, Y41H, P51L, K55E, K79N
notes: mouse hybridoma mAb; VH/VL only; also called 6301C8G12
B8: ACI-8032-6314A3-Ab3 (antibody, V domains shown)
VH: B6 VH
VL: B6 VL with S20F
notes: mouse hybridoma mAb; VH/VL only; also called 6314A3E4
B9: ACI-8032-6307F1-Ab2 (antibody, V domains shown)
VH: B6 VH with V34M, A72S, A79S, D106A
VL: B6 VL with I7T, P15L, V19A, I29V, N35I, P51L, D75Y
notes: mouse hybridoma mAb; VH/VL only; also called 6307F1H10
B10: ACI-8032-6301A10-Ab2 (antibody, V domains shown)
VH: B6 VH with V34I
VL: B6 VL with I7T, P15L, V19A, Q27H, V30E, Y41C, S48P, P51F, K79R
notes: mouse hybridoma mAb; VH/VL only; also called 6301A10E12
B11: ACI-8030-6106F5-Ab1 (antibody, V domains shown)
VH: QVQLQQSGPELVKPGASVKISCKASGYSFTTYYIHWMKQRPGQGPEWIGWIYPGRGYTKYNEKFKDKAAQTADTSSNTAYMQLSSLRSEDSAVYYCARDWETGFPYWGQGTLVTVSA
VL: DIVLTQSPASLAVSLGQRATISCKASQSVDYGGDSWLNWYQQKPGQPPKLLIYAASNLDSGIPARFGGSGSGTDFTLNIHPVEEEDAATYYCQQSGEDPFTFGGGTNLEIK
notes: mouse hybridoma mAb; VH/VL only; also called 6106F5B10
B12: ACI-7079-3106C5-Ab1 (antibody, V domains shown)
VH: QVTLKESGPGILQPSQTLSLTCSFSGFSLSTFGMGVGWIRQPSGKGLEWLTHIWWDDDKYYNPALKSRLTISRDPSKNQVFLKIANVDTADTATYYCARIGDYYGSRGYFDVWGTGTTVTVSS
VL: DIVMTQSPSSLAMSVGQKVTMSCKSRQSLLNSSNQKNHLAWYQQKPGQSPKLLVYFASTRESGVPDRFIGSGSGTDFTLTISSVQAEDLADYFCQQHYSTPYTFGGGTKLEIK
notes: mouse hybridoma mAb; VH/VL only; also called 3106C5B7
B13: ACI-7079-3104F12-Ab2 (antibody, V domains shown)
VH: B12 VH with L12V, S30N, M34L, E48D, R73K, P75T, Y103F
VL: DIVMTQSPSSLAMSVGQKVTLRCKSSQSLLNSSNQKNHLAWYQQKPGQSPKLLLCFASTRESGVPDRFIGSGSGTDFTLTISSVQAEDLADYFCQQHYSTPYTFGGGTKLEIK
notes: mouse hybridoma mAb; VH/VL only; also called 3104F12F2H7
B14: ACI-7079-3107E6-Ab1 (antibody, V domains shown)
VH: B12 VH with R73K, P75A, V80M, Y96F, Y109F
VL: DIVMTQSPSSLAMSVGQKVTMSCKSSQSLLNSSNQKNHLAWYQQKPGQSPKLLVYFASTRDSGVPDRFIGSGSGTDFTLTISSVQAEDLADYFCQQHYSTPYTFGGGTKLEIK
notes: mouse hybridoma mAb; VH/VL only; also called 3107E6A3
B15: ACI-7079-3106F2-Ab1 (antibody, V domains shown)
VH: EVQLQQSGAELVRPGASVKLSCTASGFNVKDDYMHWVKQRPEQGLEWIGWIDPENGDTEYASKFQGKATLTADTSSNTAYLQLSGLTSVDTAVYYCTTAGTSPYYFDYWGQGTTLTVSS
VL: DIVMTQSQKFMSTSVGDRVSVTCKASQNVGTNVAWYQQKVGQSPKALIYSASYRYSGVPDRFTGSGSGTDFTLTISNVQSEDLADYFCQQYNSYPLTFGSGTKLEIK
notes: mouse hybridoma mAb; VH/VL only; also called 3106F2C8
B16: ACI-8033-6403A4-Ab1 (antibody, V domains shown)
VH: EVQLVESGGGLVQPKGSLKLSCAASGFSFNTYAMNWVRQAPGKGLEWVARIRSKSNNYTTYYADSVKDRFTISRDDSESMLYLQMNNLKTEDTAMYYCVRTMDYWGQGTSVTVSS
VL: QIVLTQSPAIMSASLGEEITLTCSASSSISYMHWYQQKSGTSPKLLIHSTFNLASGVPSRFSGSGSGTFYSLTISSVEAEDAADYYCHQWSSYYTFGGGTKLEIK
notes: mouse hybridoma mAb; VH/VL only; also called 6403A4A3

Biological target: T1, monomeric alpha-synuclein (UniProt P37840 1-140)
Assay: SPR, captured bAb
Description: (§1) Any non-covalently bound antibodies were removed by three successive regenerations of 10 mM Glycine pH 1.7 (GE Healthcare, 28-9950-84). Immobilization levels were evaluated following ethanolamine capping (Bound) and finally following regeneration (Final). Non-covalent immobilization of alpha-synuclein biparatopic antibodies on flow cell 2 of channels 1-8 was performed at a final concentration of 5 μg/mL, diluted in 10 mM sodium acetate pH 5.5 (GE Healthcare, BR-1003-52). Non-covalent immobilization of an isotype control antibody on flow cell 1 of channels 1-8 was performed at a final concentration of 5 μg/mL, diluted in 10 mM sodium acetate pH 5.5 (GE Healthcare, BR-1003-52).
(§2) Binding affinity of alpha-synuclein biparatopic antibodies to monomeric or fibrillar alpha-synuclein species was performed using a single-cycle kinetics method. The instrument was primed with 1×HBS-P+ buffer (10× stock from GE Healthcare, BR-1003-52 diluted in Milli-Q water). Injections of monomeric alpha-synuclein (Boston Biochem, SP-485), increasing in concentration from 0.62-50 nM prepared from serial 2-fold dilutions, were performed with contact times of 300 sec/injection at a flow rate of 30 μL/min. A dissociation phase of 900 sec followed the final 50 nM injection. Regeneration of the sensor to the goat anti-human antibody layer was achieved using 3 regenerations of 10 mM Glycine pH 1.7. […] Regeneration of the sensor to the goat anti-mouse antibody layer was achieved using 3 regenerations of 10 mM Glycine pH 1.7. Results obtained from single-cycle kinetics were evaluated by Biacore 8K evaluation software with 1:1 binding homogenous Langmuir model with a preceeding buffer injection as a blank subtraction. The following kinetic parameters were obtained: on-rate (ka), off-rate (kd), affinity constant (KD, ratio of kd by ka), maximum response (Rmax), and goodness of fit (Chi2).
(§3) Kinetic constants were determined from 1:1 homogenous binding models for all cases.

Row | Binder | koff | kon
1 | B1 | 0.023 s⁻¹ | 2280 M⁻¹ s⁻¹

Biological target: T2, alpha-synuclein fibrils (UniProt P37840 1-140)
Assay: SPR, captured bAb
Description: as §1, §2, §3

Row | Binder | koff | kon
2 | B1 | 0.000315 s⁻¹ | 13500 M⁻¹ s⁻¹

Biological target: T1, monomeric alpha-synuclein
Assay: SPR, captured bAb; head says nM, kd/ka gives M
Description: as §1, §2, §3

Row | Binder | Kd
3 | B1 | 10.1 µM

Biological target: T2, alpha-synuclein fibrils
Assay: SPR, captured bAb; head says nM, kd/ka gives M
Description: as §1, §2, §3

Row | Binder | Kd
4 | B1 | 0.0234 µM

Biological target: T1, monomeric alpha-synuclein
Assay: SPR, captured mAb
Description: (§4) Non-covalent immobilization of alpha-synuclein antibodies was performed using a target immobilization method of 2000 response units (RU). Antibodies were diluted in 10 mM sodium acetate pH 5.5 (GE Healthcare, BR-1003-52) to a final concentration of 5 μg/mL.
(§5) Binding affinity of alpha-synuclein antibodies to monomeric or fibrillar alpha-synuclein species was performed using a single-cycle kinetics method. The instrument was primed with 1×HBS-P+ buffer (10× stock from GE Healthcare, BR-1003-52 diluted in Milli-Q water). Injections of monomeric alpha-synuclein (aSyn) (Boston Biochem, SP-485), increasing in concentration from 0.62-50 nM prepared from serial 2-fold dilutions, were performed with contact times of 300 sec/injection at a flow rate of 30 μL/min. A dissociation phase of 900 sec followed the final 50 nM injection. Regeneration of the sensor to the goat anti-mouse antibody layer was achieved using 3 regenerations of 10 mM Glycine pH 1.7. […] Regeneration of the sensor to the goat anti-mouse antibody layer was achieved using 3 regenerations of 10 mM Glycine pH 1.7. Results obtained from single-cycle kinetics were evaluated by Biacore T200 evaluation software with 1:1 binding homogenous Langmuir model (with a global Rmax) with Cycle 5 as a blank subtraction. The following kinetic parameters were obtained: on-rate (ka), off-rate (kd), affinity constant (KD, ratio of kd by ka), maximum response (Rmax), and goodness of fit (Chi2).
(§6) Non-covalent capture of the alpha-synuclein antibodies was performed in three separate runs.

Row | Binder | Kd | koff | kon
5 | B2 | 0.0105 µM | 0.00225 s⁻¹ | 214000 M⁻¹ s⁻¹
6 | B3 | 0.606 µM | 0.000237 s⁻¹ | 390 M⁻¹ s⁻¹
7 | B4 | 0.00326 µM | 0.000651 s⁻¹ | 200000 M⁻¹ s⁻¹
8 | B5 | 0.00367 µM | 0.000314 s⁻¹ | 85300 M⁻¹ s⁻¹
9 | B6 | 0.00475 µM | 0.016 s⁻¹ | 3.37e+06 M⁻¹ s⁻¹
10 | B7 | 0.00876 µM | 0.00329 s⁻¹ | 376000 M⁻¹ s⁻¹
11 | B8 | 0.0167 µM | 0.0382 s⁻¹ | 2.28e+06 M⁻¹ s⁻¹
12 | B9 | 0.019 µM | 0.0248 s⁻¹ | 1.3e+06 M⁻¹ s⁻¹
13 | B10 | 0.0115 µM | 0.00517 s⁻¹ | 450000 M⁻¹ s⁻¹
14 | B11 | 0.00195 µM | 0.00023 s⁻¹ | 118000 M⁻¹ s⁻¹
15 | B12 | 0.0041 µM | 0.00325 s⁻¹ | 792000 M⁻¹ s⁻¹
16 | B13 | 0.00051 µM | 0.000452 s⁻¹ | 892000 M⁻¹ s⁻¹
17 | B14 | 0.00112 µM | 0.000859 s⁻¹ | 765000 M⁻¹ s⁻¹
18 | B15 | 0.392 µM | 0.135 s⁻¹ | 344000 M⁻¹ s⁻¹
19 | B16 | 0.0964 µM | 0.044 s⁻¹ | 457000 M⁻¹ s⁻¹

Biological target: T2, alpha-synuclein fibrils
Assay: SPR, captured mAb
Description: as §4, §5, §6

Row | Binder | Kd | koff | kon
20 | B2 | 0.0193 µM | 0.000216 s⁻¹ | 11200 M⁻¹ s⁻¹
21 | B3 | 3.35 µM | 0.000353 s⁻¹ | –
22 | B4 | 0.134 µM | 0.000987 s⁻¹ | 7350 M⁻¹ s⁻¹
23 | B5 | 0.0133 µM | 0.00015 s⁻¹ | 11300 M⁻¹ s⁻¹
24 | B6 | 0.0406 µM | 0.000527 s⁻¹ | 13000 M⁻¹ s⁻¹
25 | B7 | 0.0428 µM | 0.00355 s⁻¹ | 83000 M⁻¹ s⁻¹
26 | B8 | 0.0415 µM | 0.000325 s⁻¹ | 7830 M⁻¹ s⁻¹
27 | B9 | 0.026 µM | 0.000691 s⁻¹ | 26500 M⁻¹ s⁻¹
28 | B10 | 0.00269 µM | 0.000193 s⁻¹ | 71800 M⁻¹ s⁻¹
29 | B11 | 0.0167 µM | 0.000232 s⁻¹ | 13900 M⁻¹ s⁻¹
30 | B12 | 0.00949 µM | 0.000237 s⁻¹ | 25000 M⁻¹ s⁻¹
31 | B13 | 0.00373 µM | 0.000268 s⁻¹ | 71800 M⁻¹ s⁻¹
32 | B14 | 0.00266 µM | 0.000146 s⁻¹ | 55100 M⁻¹ s⁻¹
33 | B15 | 0.0315 µM | 0.000367 s⁻¹ | 11700 M⁻¹ s⁻¹
34 | B16 | 0.0379 µM | 0.000599 s⁻¹ | 15800 M⁻¹ s⁻¹
